This test has as its target T1, TAT425 polypeptide (Homo sapiens (Human), UniProt O15439 1-1325).
T1 construct: no signal peptide or domain limits are stated; also called TAT425 protein; polypeptide encoded by DNA340411
T1 sequence: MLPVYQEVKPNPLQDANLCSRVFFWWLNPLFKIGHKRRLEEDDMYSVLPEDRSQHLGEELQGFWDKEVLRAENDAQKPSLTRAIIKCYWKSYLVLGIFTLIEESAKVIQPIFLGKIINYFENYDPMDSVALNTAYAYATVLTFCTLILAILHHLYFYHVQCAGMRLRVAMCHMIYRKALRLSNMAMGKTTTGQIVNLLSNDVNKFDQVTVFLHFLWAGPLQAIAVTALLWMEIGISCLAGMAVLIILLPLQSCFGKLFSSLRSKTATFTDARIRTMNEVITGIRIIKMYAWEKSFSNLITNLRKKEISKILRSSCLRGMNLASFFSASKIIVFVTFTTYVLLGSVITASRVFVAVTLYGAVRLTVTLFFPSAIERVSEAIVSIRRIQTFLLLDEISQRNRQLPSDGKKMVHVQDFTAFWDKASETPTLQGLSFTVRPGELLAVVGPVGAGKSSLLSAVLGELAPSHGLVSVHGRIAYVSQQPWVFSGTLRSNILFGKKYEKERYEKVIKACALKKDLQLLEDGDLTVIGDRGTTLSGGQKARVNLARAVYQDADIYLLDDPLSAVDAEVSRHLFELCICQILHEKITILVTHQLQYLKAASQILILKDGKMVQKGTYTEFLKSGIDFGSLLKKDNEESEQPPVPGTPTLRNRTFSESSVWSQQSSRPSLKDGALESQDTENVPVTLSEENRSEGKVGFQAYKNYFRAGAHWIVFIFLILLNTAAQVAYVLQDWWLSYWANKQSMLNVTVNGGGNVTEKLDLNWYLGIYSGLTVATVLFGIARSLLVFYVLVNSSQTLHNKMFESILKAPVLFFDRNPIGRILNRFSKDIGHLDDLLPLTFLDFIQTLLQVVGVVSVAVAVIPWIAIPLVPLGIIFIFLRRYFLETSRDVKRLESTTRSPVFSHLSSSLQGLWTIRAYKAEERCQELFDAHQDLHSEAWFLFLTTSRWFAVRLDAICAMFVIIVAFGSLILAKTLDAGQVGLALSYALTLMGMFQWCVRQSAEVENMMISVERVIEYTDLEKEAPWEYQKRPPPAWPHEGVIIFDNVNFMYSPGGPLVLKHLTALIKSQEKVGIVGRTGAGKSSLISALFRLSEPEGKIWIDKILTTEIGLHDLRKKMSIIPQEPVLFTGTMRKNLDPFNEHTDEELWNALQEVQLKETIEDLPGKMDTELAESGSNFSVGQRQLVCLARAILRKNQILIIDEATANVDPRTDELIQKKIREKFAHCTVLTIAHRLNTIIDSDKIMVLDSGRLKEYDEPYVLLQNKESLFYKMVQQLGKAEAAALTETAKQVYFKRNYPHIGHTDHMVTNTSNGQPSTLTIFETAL
The experiment in a line: Western blot, ELISA, FACS and/or immunohistochemistry on cells expressing TAT425. A general note: In western blotting, separated proteins are transferred to a membrane and probed.

B1: anti-TAT425 monoclonal antibody 14E7.17.1 (antibody, V domains shown)
VH: QVQLKESGPGLVAPSQSLSITCTVSGFSLTTYGVSWVRQPPGKGLEWLGLIWGDGSINYHSALISRLSISKDNSKSQVFLKLNSLQTDDTATYYCAKGWGGLYVMDYWGQGTSVTVAS
VL: DIQMTQSPASLSASVGETVTITCRSSENIYSYLAWYQQKLGKSPQLLVYNAKTLAEGVPSRFSGSGSGTQFSLKIYSLQSADFGSYYCQHHFGSPPTFGGGTKLESKR
Take B1: the binding result was “binds”.

B2: anti-TAT425 monoclonal antibody 13H2.28.2 (antibody, V domains shown)
VH: QVQLQQPGAELVRPGASVKLSCKASGYSFTSYWMNWVRQRPGQGLEWIGMIHPSDSETRLNQKFKDKATLTVDKSSSTAYMQLSSPTSDDSAVYFCTREAITAVHFWGHGTTLTVSS
VL: QAVVTQESALTTSPGETVTLTCRSSTGAVTTSNYANWVQEKPDHLFTGLIGGTNNRAPGVPARFSGSLIGDKAALTITGAQTEDEAIYFCALWYSNHWVFGGGTKLTVLG
For B2, the binding result is given as “binds”.

B3: anti-TAT425 monoclonal antibody 2E4.6.1 (antibody, V domains shown)
VH: EVQLQQSGAELVKPGASVKLSCTTSGFNIKDYYMQWVKQRTGQGLEWIGRIDPEDGETKNAPKFQGKATITADTSSNTAYLQLSSLTSEDTAVYFCAREGYYGNGYAMDYWGQGTSVTVSS
VL: DVLMTQTPLSLPVSLGDQASISCRSSQSIVHSNGNTYLDWYLQKPGQSPKLLIYKVSNRFSGVPDRFSGSGSGTDFTLKISRVEAEDLGVYYCFQGSHVPWTFGGGTKLEIKR
As for B3, the binding result is on record as “binds”.
